T1: human CEACAM5 expressed on MKN45 cells (human, UniProt P06731 35-685)
T1 sequence: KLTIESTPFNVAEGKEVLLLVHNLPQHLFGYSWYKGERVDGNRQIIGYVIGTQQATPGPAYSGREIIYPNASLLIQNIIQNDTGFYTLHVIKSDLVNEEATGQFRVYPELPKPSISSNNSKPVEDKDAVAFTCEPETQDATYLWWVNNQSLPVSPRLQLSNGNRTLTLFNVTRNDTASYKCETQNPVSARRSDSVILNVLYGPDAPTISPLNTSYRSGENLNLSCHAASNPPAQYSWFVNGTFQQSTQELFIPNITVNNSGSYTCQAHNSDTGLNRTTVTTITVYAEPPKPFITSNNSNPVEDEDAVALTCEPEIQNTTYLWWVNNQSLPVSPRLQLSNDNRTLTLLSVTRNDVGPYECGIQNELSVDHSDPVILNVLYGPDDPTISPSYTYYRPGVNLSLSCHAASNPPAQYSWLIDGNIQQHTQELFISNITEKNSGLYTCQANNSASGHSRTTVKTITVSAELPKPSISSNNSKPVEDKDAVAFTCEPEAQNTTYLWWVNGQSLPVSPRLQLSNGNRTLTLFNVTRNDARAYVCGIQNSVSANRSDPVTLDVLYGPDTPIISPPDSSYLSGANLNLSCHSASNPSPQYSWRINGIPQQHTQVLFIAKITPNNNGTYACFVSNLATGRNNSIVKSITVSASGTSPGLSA

T2: Human CEACAM5 A3B3 domain (human, UniProt P06731 499-685)
T2 construct: also called human A3B3 domain; not shown: The human Fc part (and any linker) implied by capture on an anti-human Fc antibody chip
T2 sequence: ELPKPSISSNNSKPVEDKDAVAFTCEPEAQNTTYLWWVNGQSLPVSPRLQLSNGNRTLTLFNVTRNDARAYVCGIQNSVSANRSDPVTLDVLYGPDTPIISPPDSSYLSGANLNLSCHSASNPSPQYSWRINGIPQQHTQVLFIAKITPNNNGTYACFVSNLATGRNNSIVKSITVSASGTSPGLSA


How the values were obtained:
[1] = target: T1, human CEACAM5 expressed on MKN45 cells; assay: flow cytometry on MKN45 cells, 300 nm [sic], PE-anti human Fc secondary; negative control
[2] = target: T1, human CEACAM5 expressed on MKN45 cells; assay: cell-based or functional assay
[3] = target: T2, Human CEACAM5 A3B3 domain; assay: SPR (Biacore T200), A3B3 domain captured on anti-human Fc CM5 chip, sdAb injected, 1:1 Langmuir
[4] = target: T1, human CEACAM5 expressed on MKN45 cells; assay: flow cytometry on MKN45 cells, sdAb at 300 nm as printed, PE-anti human Fc secondary

Geometric mean MFI [1] [MFI] | EC50 (read off the curve), internalization by pHrodo [2] [nM] | Kd [3] [nM] | koff [3] [s⁻¹] | kon [3] [M⁻¹ s⁻¹] | Geometric mean MFI [4] [MFI] | Molecule
12.9 |  |  |  |  |  | Human IgG1 isotype (antibody)
 | ~20 | 48.9 | 0.0137 | 280000 |  | anti-CEACAM5 single domain antibody of SEQ ID NO: 10 (VHH, tags or Fc in the assays are not described) VHH: EVDLMESGGGLVQPGGSLRLSCTASGDTLDYYAIDWFRQAPGKEREGVSCISSRGGTTNYADAVKGRFTISRDNAKNTVYLQMNSLRPEDTAVYYCAAEFTGWAVCNFSRKSGEYDYWGQGTQVTVSS
 | ~20 | 9.74 | 0.00208 | 214000 | 292 | anti-CEACAM5 single domain antibody of SEQ ID NO: 5 (VHH, tags or Fc in the assays are not described) VHH: EVDLVESGGGLVQAGGSLRLSCAPSGRTSSLDTMAWFRQAPGKEREFVASTNWNRGGASYADSVKGRFTISRDATKNTVYLQINSLEPEDTAVYYCAASTRGIVSDNYWGQGTQVTVSS
 |  | 7.77 | 0.00126 | 162000 | 647 | anti-CEACAM5 single domain antibody of SEQ ID NO: 6 (VHH, tags or Fc in the assays are not described) VHH: EVQLVESGGGLVQPGGSLRLSCAASRGTFSRLDMGWFRQAPGKEREFVASSTWSGGTAYATDSVKTRFTISRDSAKTTVYLQMNSLRPEDTAVYYCAAGLSLEQHTPPYWGQGTQVTVSS
 | ~20 | 0.362 | 4.46e-05 | 123000 | 292 | anti-CEACAM5 single domain antibody of SEQ ID NO: 1 (VHH, Alpaca sdAb clone expressed in E. coli) VHH: EVQLVESGGGLVQAGGSLRLSCVASTRIAGMGWYRAPPGKGRELVASISEEGTTTYAVPVEGRFTVSRDNVKNMLHLQMNSLKPEDTAMYYCVARRTFPSVVEGVDYWGQGTQVTVSS
 |  | 7.74 | 0.0032 | 414000 |  | anti-CEACAM5 single domain antibody of SEQ ID NO: 3 (VHH, tags or Fc in the assays are not described) VHH: EVDLVESGGGLVQPGGSLRLSCAASGFTFSSYYMSWVRQPPGKGIEWVSEISSGGGSTNYAVPVEGRFTISRDNAKNTLSLQMNSLKPEDTALYYCARGSHADFNSWGQGTQVTVSS
 |  | 19.1 | 0.00243 | 127000 | 636 | anti-CEACAM5 single domain antibody of SEQ ID NO: 8 (VHH, tags or Fc in the assays are not described) VHH: AVQLVESGGGLVQAGGSLRLSCAASGRTFSSYWLGWFRQVPGEEREFVAAISWSGSGVVTNYADSVKGRFTISRDDGNNALYLQMSNLNPEDTAVYYCAARLGTYYKDYARSGAYDTWGQGTQVTVSS
 |  | 19 | 0.013 | 688000 |  | anti-CEACAM5 single domain antibody of SEQ ID NO: 7 (VHH, tags or Fc in the assays are not described) VHH: EVQLVESGGGLVQAGGSLRLSCAASGRTFSRDVMGWFRQAPGKEREFVAVINWTDSTYYLDSVKGRFTISRENAENTVYLQMNSLKPEDTAIYYCATGIGGLYRRPSAYKYWGQGTQVTVSS
 |  | 2 | 0.000311 | 155000 | 394 | anti-CEACAM5 single domain antibody of SEQ ID NO: 4 (VHH, tags or Fc in the assays are not described) VHH: EVQLVESGGGLVQPGESLRLSCAASGFSFSSYAMSWVRQPPGMGIEWVAEIDSGGGSTDYAVPVKGRFTISRDNVKNTLYLQMNSLKPEDTAVFYCAKGTHADFGSWGQGTQVTVSS
 | 25 to 30 | 0.732 |  |  | 382 | anti-CEACAM5 single domain antibody of SEQ ID NO: 9 (VHH, tags or Fc in the assays are not described) VHH: QVQLVESGGGLVQPGESLRLSCAASGFTFSSYAMSWVRQPPGKGIEWVAEIDSGGDRTDYAVPVKGRFTISRDNVENTLYLQMNSLKPEDTAVFYCAKGTHADFGSWGQGTLVTVSS
 |  | 0.533 | 0.000997 | 1.87e+06 | 565 | anti-CEACAM5 single domain antibody of SEQ ID NO: 2 (VHH, tags or Fc in the assays are not described) VHH: QLQLVESGGGLVQPGGSLRLSCAVSGDRWDYYAIGWIRQAPGKEREGVSCISSSGRTTNYADSVKGRFTISRDNAKNTVYLQMNSLKPEDTAVYYCSTEFTGWDRCGFDEYDHRGQGTQVTVSS
